Numbering of substitutions follows the chain as printed.

To fix the notation:
T1: fusion protein in which the extracellular domain of human GITR is fused with the domain of mouse IgG1-Fc (human)
T1 construct: The GITR part is said to start at residue 1 of Q9Y5U5, so the entry may hold a signal peptide; Made in HEK293 cells, Protein A purified; also called hGITR-muFc; human GITR protein
T1 chain: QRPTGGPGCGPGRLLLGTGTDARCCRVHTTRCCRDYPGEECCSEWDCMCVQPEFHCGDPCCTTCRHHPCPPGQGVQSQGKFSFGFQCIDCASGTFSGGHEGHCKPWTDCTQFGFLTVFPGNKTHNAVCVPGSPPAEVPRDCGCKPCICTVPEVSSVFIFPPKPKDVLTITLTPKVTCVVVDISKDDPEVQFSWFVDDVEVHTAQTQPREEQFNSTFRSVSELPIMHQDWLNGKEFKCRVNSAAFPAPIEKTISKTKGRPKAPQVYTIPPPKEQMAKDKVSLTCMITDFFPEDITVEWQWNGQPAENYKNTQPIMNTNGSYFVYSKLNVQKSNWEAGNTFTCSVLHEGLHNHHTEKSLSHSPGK

B1: isolated antigen-binding protein C3E2 (antibody, human IgG1, kappa, V domains shown)
VH: QVQLQESGPGILQPSQTLSLTCSFSGFSLSTFGMGVGWIRQPSGKGLEWLVLILWNDIKYYNPALKSLLTVSKDTSNNQVFLKIASVDTADTATYYCARVDGYYGYFDVWGTGTTVTVSS
VL: DIVMTQSPLSLPVSLGDQASISCRSSQTIVHSNGNTYLEWYLQKPGQSPKLLIYKVSNRFSGVPDRFSGSGSGTDFTLKISRVEAEDLGVYYCFQGSHVPWTFGGGTKLEIKR
notes: made in HEK293 cells; also called parent antibody; chimeric antibody
B2: isolated antigen-binding protein 3E2 1-3 (antibody, human IgG1, kappa)
heavy: not shown
light: DIVMTQSPLSLPVTLGQPASISCRSSQTIVHSNGNTYLEWYLQKPGQSPKLLIYKVSNRFSGVPDRFSGSGSGTDFTLKISRVEAEDVGVYYCFQGSHVPWTFGGGTKLEIKRTVAAPSVFIFPPSDEQLKSGTASVVCLLNNFYPREAKVQWKVDNALQSGNSQESVTEQDSKDSTYSLSSTLTLSKADYEKHKVYACEVTHQGLSSPVTKSFNRGEC
notes: also called VHV1/VLV3
B3: isolated antigen-binding protein 3E2 2-2 (antibody, human IgG1, kappa)
heavy: not shown
light: B2 light with K44R, L109V
notes: also called VHV2/VLV2
B4: isolated antigen-binding protein 3E2 1-2 (antibody, human IgG1, kappa, V domains shown)
VH: QVTLQESGPTLVKPTQTLTLTCTFSGFSLSTFGMGVGWIRQPPGKGLEWLVLILWNDIKYYNPALKSLLTVTKDTSKNQVVLTITNMDPVDTATYYCARVDGYYGYFDVWGQGTMVTVSS
VL: B1 VL with S14T, D17Q, Q18P, K44R, L88V, L109V
notes: also called VHV1/VLV2
B5: isolated antigen-binding protein 3E2 1-4 (antibody, human IgG1, kappa)
heavy: not shown
light: B2 light with Q17D, P18Q
notes: also called VHV1/VLV4
B6: isolated antigen-binding protein 3E2 2-3 (antibody, human IgG1, kappa)
heavy: not shown
light: B2 light
notes: also called VHV2/VLV3
B7: isolated antigen-binding protein 3E2 3-2 (antibody, human IgG1, kappa)
heavy: not shown
light: B2 light with K44R, L109V
notes: also called VHV3/VLV2
B8: isolated antigen-binding protein 3E2 3-3 (antibody, human IgG1, kappa)
heavy: not shown
light: B2 light
notes: also called VHV3/VLV3
B9: isolated antigen-binding protein 3E2 2-4 (antibody, human IgG1, kappa)
heavy: not shown
light: B2 light with Q17D, P18Q
notes: also called VHV2/VLV4
B10: isolated antigen-binding protein 3E2 3-4 (antibody, human IgG1, kappa)
heavy: not shown
light: B2 light with Q17D, P18Q
notes: also called VHV3/VLV4

One experiment deals with T1, fusion protein in which the …. The experiment in a line: ELISA, hGITR-muFc coated at 5 ug/ml, anti-human IgG-HRP (FIG. 5). As to the method:
(§1) An ELISA plate was coated with 5 μg/ml of hGITR-muFc at 100 μl/well, and incubated overnight at 4° C. The plate was washed with 10 mM of PBS/Tween (0.05%) at pH 7.4 for 3 times, blocked with PBS containing 3% BSA and incubated at 37° C. for 2 h; then washed for 3 times, added with the above 9 isolated antigen-binding proteins of the present application in 3-fold dilutions starting from 10 μg/ml, incubated at 37° C. for 2 h, washed for 3 times, added with anti-human IgG-HRP enzyme-labeled secondary antibody, incubated at 37° C. for 1 h, cleaned, then developed with TMB substrate, and subjected to spectrophotometric analysis at OD450 nm. The results are shown in FIG. 5 and FIG. 6, in which the EC₅₀ values of various proteins in FIG. 5 and FIG. 6 are shown in Table 3 and Table 4, respectively. It can be seen from FIG. 5 and FIG. 6 as well as Table 3 and Table 4 that, the humanized antibodies (i.e., the isolated antigen-binding proteins of the present application 3E2 1-2, 3E2 1-3, 3E2 1-4, 3E2 2-2, 3E2 2-3, 3E2 2-4, 3E2 3-2, 3E2 3-3 and 3E2 3-4) have a binding affinity to the antigen that is equivalent to that of the parent antibody (i.e., the isolated antigen-binding protein C3E2 of the present application).
On the technique in general: ELISA stands for enzyme-linked immunosorbent assay.
As for B1, the EC50 – broadly, the concentration needed to bring the measured effect to its halfway point – amounted to 6.21 ng/mL.

B2 registered an EC50 of 5.83 ng/mL.

B3: it took 5.64 ng/mL to reach a half-maximal effect (EC50).

For B4, the EC50 was found to be 5.9 ng/mL.

Regarding B5, the EC50 worked out at 4.52 ng/mL.

The target is the same in another experiment. In words: ELISA, hGITR-muFc coated at 5 ug/ml, anti-human IgG-HRP (FIG. 6). As to the method: as §1
With B1, the EC50 amounted to 6.72 ng/mL.

B6 displayed an EC50 of 4.71 ng/mL.

The molecule B7 registered a concentration for a half-maximal effect (EC50) of 5.28 ng/mL.

As for B8, the EC50 is 6.04 ng/mL.

With B9, a half-maximal response (EC50) required 4.8 ng/mL.

In turn, B10 returned an EC50 of 6.43 ng/mL.

The next experiment has the same target. The experiment in a line: BLI (Octet K2), antibody on AHC biosensor, hGITR-muFc in solution from 100 nM. As to the method: Using the BLI method, the above 9 isolated antigen-binding proteins of the present application and C3E2 were immobilized on the AHC biosensor at a concentration of 10 µg/ml. At the same time, the hGITR-muFc prepared in Example 1 was diluted 2-fold from 100 nM in 5 gradients. The reaction plate was placed on Octet K2 instrument, meanwhile the program was set as Baseline 60 s, Association 20 s, Disscociation 300 s, Baseline 2 30 s, Loading 40 s, custom 5 s. At the end of the program, curve fitting and parameter conversion were conducted.
For orientation: Biolayer interferometry detects binding as a change in optical thickness at a sensor tip.
For the molecule B1, the affinity, expressed as Kd, was 6.01 pM; the dissociation rate constant (koff) (in general, the rate constant with which the complex falls apart) turned out to be 1.83e-05 s⁻¹; the kon (as a rule, the rate constant with which the complex forms) is 3.05e+06 M⁻¹ s⁻¹.

On to B6, for which the Kd (commonly the free concentration of one partner at which half of the binding sites on the other are occupied at equilibrium, for simple one-to-one binding) was under 1 pM; the koff is under 1e-07 s⁻¹; the kon is 2.46e+06 M⁻¹ s⁻¹.

B2 returned a Kd of under 1 pM, a koff of under 1e-07 s⁻¹ and a kon of 2.32e+06 M⁻¹ s⁻¹.

B3 showed a Kd of 12.5 pM, a koff of 3.01e-05 s⁻¹ and a kon of 2.4e+06 M⁻¹ s⁻¹.

On to B4, for which the Kd was under 1 pM, the koff was under 1e-07 s⁻¹ and the kon was 2.49e+06 M⁻¹ s⁻¹.

In turn, B7 had a Kd of under 1 pM, an off-rate (koff) of under 1e-07 s⁻¹ and a kon of 2.52e+06 M⁻¹ s⁻¹.

For B8, the Kd is under 1 pM, the koff is under 1e-07 s⁻¹ and the kon was found to be 2.49e+06 M⁻¹ s⁻¹.

B9 had a Kd of under 1 pM, a koff of under 1e-07 s⁻¹ and an on-rate constant (kon) of 2.41e+06 M⁻¹ s⁻¹.

For B5, the Kd is under 1 pM, the koff is under 1e-07 s⁻¹ and the kon worked out at 2.55e+06 M⁻¹ s⁻¹.

As for B10, binding was put at a Kd of 4.72 pM, the koff amounted to 1.23e-05 s⁻¹ and the kon came out at 2.6e+06 M⁻¹ s⁻¹.

(Values after patent US20220356259A1 (SHIHUDA PHARMACEUTICAL GROUP JILIN, published 2022).)
